Data: article PMC5003112 (Nature chemical biology, 2016)

Tests used:
crystal structure = molecular target: the molecule itself; test: crystal structure
SEC = molecular target: the molecule itself; test: SEC

Protein	stoichiometry N (crystal structure)	binding result (SEC)
Escherichia coli NudC (crystallization construct) (enzyme, E. coli) MDRIIEKLDHGWWVVSHEQKLWLPKGELPYGEAANFDLVGQRALQIGEWQGEPVWLVQQQRRHDMGSVRQVIDLDVGLFQLAGRGVQLAEFYRSHKYCGYCGHEMYPSKTEWAMLCSHCRERYYPQIAPCIIVAIRRDDSILLAQHTRHRNGVHTVLAGFVEVGETLEQAVAREVMEESGIKVKNLRYVTSQPWPFPQSLMTAFMAEYDSGDIVIDPKELLEANWYRYDDLPLLPPPGTVARRLIEDTVAMCRAEYE	2	–
E. coli NudC Y188A (enzyme, E. coli K-12, UniProt P32664 1-257, looked up) MDRIIEKLDHGWWVVSHEQKLWLPKGELPYGEAANFDLVGQRALQIGEWQGEPVWLVQQQRRHDMGSVRQVIDLDVGLFQLAGRGVQLAEFYRSHKYCGYCGHEMYPSKTEWAMLCSHCRERYYPQIAPCIIVAIRRDDSILLAQHTRHRNGVHTVLAGFVEVGETLEQAVAREVMEESGIKVKNLRAVTSQPWPFPQSLMTAFMAEYDSGDIVIDPKELLEANWYRYDDLPLLPPPGTVARRLIEDTVAMCRAEYE	–	binds
E. coli NudC Y188Q (enzyme, E. coli K-12, UniProt P32664 1-257, looked up) MDRIIEKLDHGWWVVSHEQKLWLPKGELPYGEAANFDLVGQRALQIGEWQGEPVWLVQQQRRHDMGSVRQVIDLDVGLFQLAGRGVQLAEFYRSHKYCGYCGHEMYPSKTEWAMLCSHCRERYYPQIAPCIIVAIRRDDSILLAQHTRHRNGVHTVLAGFVEVGETLEQAVAREVMEESGIKVKNLRQVTSQPWPFPQSLMTAFMAEYDSGDIVIDPKELLEANWYRYDDLPLLPPPGTVARRLIEDTVAMCRAEYE	–	binds
